Values quoted from earlier work, collected in US20100068187A1, “TRANSCRIPTION FACTORS FOR DIFFERENTIATION OF ADULT HUMAN OLFACTORY PROGENITOR CELLS” (priority 2006, published 2010).

B1: GDNF: glial-derived neurotrophic factor (protein, UniProt P39905 78-211, looked up)
Glial cell line-derived …: SPDKQMAVLPRRERNRQAAAANPENSRGKGRRGQRGKNRGCVLTAIHLNVTDLGLGYETKEELIFRYCSGSCDAAETTYDKILKNLSRNRRLVSDKVGQACCRPIAFDDDLSFLDDNLVYHILRKHSAKRCGCI
B2: BDNF: brain-derived neurotrophic factor (protein, UniProt P23560 19-247, looked up)
Neurotrophic factor BDNF …: APMKEANIRGQGGLAYPGVRTHGTLESVNGPKAGSRGLTSLADTFEHVIEELLDEDQKVRPNEENNKDADLYTSRVMLSSQVPLEPPLLFLLEEYKNYLDAANMSMRVRRHSDPARRGELSVCDSISEWVTAADKKTAVDMSGGTVTVLEKVPVSKGQLKQYFYETKCNPMGYTKEGCRGIDKRHWNSQCRTTQSYVRALTMDSKKRIGWRFIRIDTSCVCTLTIKRGR

Tested on: Human NSFCs
Settings: incubated in the presence of neurotrophic factor

| Molecule | neuronal differentiation of human NSFCs |
| --- | --- |
| B1 | refractory to neuronal differentiation |
| B2 | refractory to neuronal differentiation |
